In US20100249383A1, “Novel Ligand Involved In The Transmigration Of Leukocytes Across the Endothelium and Uses Therefor” (The Regents of The University of California and The Burnham …, priority 2001, published 2010):
Several values for one entry are separate records, joined by “and”; a condition that tells them apart may be missing. Equal entries are not always repeated.

What was measured:
HUVECs = experiment: Surface binding of iodinated S100A8/A9 to endothelial cells; parameters: species or system human
Procedure: Human umbilical vein endothelial cells (HUVECs) were grown in Endothelial Cell growth Medium (Cell Applications) at 37° C. in 5% CO2. Cell staining and Western blotting were performed to confirm expression of mAbGB3.1 antigens. HUVECS at passages 3-4 were used in the binding assays. Purified proteins were radioiodinated using Na^125I and Iodo-Beads Iodinating Reagent as per the manufacturer's protocols. Unbound label was removed on a Sephadex G25 column, followed by concentration of the void volume fractions using Centricon10 concentrators.
Cells grown to confluence in 12 well plates and activated with 1 μM PAF for 4 hr. Activated and unactivated cells were washed with cold HBSS and then incubated with 4 nM to 80 nM ^125I-S100A8/A9 in 1 ml of HBSS, or 20 nM labeled complex in the absence and presence of modulators at 4° C. for 2 h. The reaction was stopped by rapid removal of unbound label, and the cells were washed thrice with cold HBSS. They were solubilized in 1 M NaOH followed by addition of an equal volume of 1 M HCl, and the radioactivity associated with the lysates was measured using a gamma counter. […] Panels 2 and 3 show the results for HUVECs incubated with 20 nM labeled complex in the absence or presence of modulators, in 1 ml of HBSS at 4° C. for 2 hours.

[1] = tested on: [2-^3H]mannose-labeled CPAE glycoproteins; experiment: Precipitation of mannose-labeled glycoproteins and cross-binding; parameters: species or system bovine
Procedure: Calf pulmonary artery endothelial cells (CPAE) cells were labeled with [2-^3H] mannose at 20 μCi/ml for 24 h in alpha MEM containing 10% fetal bovine serum. Cells were harvested by trypsinization, washed thrice in PBS, and lysed in PBS containing protease inhibitors and 0.5% NP40. Protein-rich lysates were prepared by ultrafiltration on YM10 membranes. Purified S100A8/A9 or annexin I proteins were immobilized on Affigel-10, and mixed with the labeled glycoproteins from CPAE cells in 10 mM HEPES buffer pH 7.5 containing 150 mM NaCl, 5 mM KCl, 1.2 mM MgCl2 and 1.3 mM CaCl2 after preclearing the lysates with BSA-Affigel 10. For immunoprecipitations using mAbGB3.1, lysates were precleared with normal mouse IgG-protein G beads and then incubated with Protein G coupled to mAbGB3.1 IgG in PBS. After overnight incubation at 4° C., the individual pellets were washed free of all unbound label until no more counts appeared in the washes, and the radioactivity associated with the pellets was measured.
For cross-binding, label associated with each pellet was first eluted using high salt (5 M MgCl2, which eluted >70% bound label). The eluates were repeatedly desalted on YM10 membranes and resuspended in the respective buffers. Label eluted from mAbGB3.1 gels was mixed with immobilized S100A8/A9 or annexin I and vice versa. Again, after overnight incubation at 4° C., the individual pellets were washed free of all unbound label and counted. […] In comparison, immobilized annexin I precipitated only about 2-3% of mannose labeled glycoproteins from endothelial cells (data not shown).

[2] = tested on: 0.3 M asialo-COO^− glycopeptide-BSA neoglycoproteins; experiment: ELISA binding of purified proteins to immobilized carboxylated bovine lung glycans; conditions: FIG. 19 or data not shown
Procedure: In additional ELISA experiments, 96-well plates were coated with 0.3 M asialo-COO^− glycopeptide-BSA neoglycoproteins (250 ng/well) for 4 h at 37° C. (control wells had BSA alone) and blocked with 3% BSA in PBS overnight. The wells were then incubated with purified human annexin I or S100A8/A9 complexes (as appropriate), in 10 mM HUES buffer pH 7.5 containing 150 mM NaCl, 5 mM KCl, 1.2 mM MgCl2 and 1.3 mM CaCl2, in the absence or presence of varying concentrations of 0.3 M asialo-COO^− glycopeptides or 0.3 M asialo-CONHMe-glycopeptides for 2 h at room temperature. This was followed by incubation with anti-bovine annexin I antibody or anti-human S100A8 or anti-S100A9 for 2 h at room temperature. Wells were then washed and incubated with alkaline phosphatase conjugated goat anti-mouse IgG, followed by development with p-nitrophenyl phosphate substrate.
In this Example, experiments conducted to assess amphoterin binding to COO^− glycopeptide coated plates was assayed as described earlier for annexin I and S100 proteins. In addition, bound protein was detected using anti-amphoterin. mAbGB3.1 binding to sRAGE was assessed by first coating sRAGE on microtiter wells for 4 h at 37° C. After blocking with 3% BSA in PBS overnight, wells were incubated with mAbGB3.1 in the presence and absence of COO^−or CONHMe-glycopeptide and developed as described above.

[3] = target: [2-3H]mannose-labeled CPAE glycoproteins eluted from mAbGB3.1; experiment: rebinding to immobilized S100A8/A9 of label eluted from mAbGB3.1 (1,961 cpm added)
[4] = target: [2-3H]mannose-labeled CPAE glycoproteins eluted from mAbGB3.1; experiment: rebinding to immobilized S100A8/A9 of label eluted from mAbGB3.1 (4,951 cpm added)
[5] = target: [2-3H]mannose-labeled CPAE glycoproteins; experiment: precipitation of [2-3H]mannose-labeled CPAE glycoproteins by S100A8/A9 on Affigel-10 (20,386 cpm added)
[6] = target: cell surface binding sites on human umbilical vein endothelial cells (HUVECs); experiment: binding of 125I-S100A8/A9 to unactivated HUVECs (data not shown)
[7] = target: [2-3H]mannose-labeled CPAE glycoproteins; experiment: precipitation of [2-3H]mannose-labeled CPAE glycoproteins by S100A8/A9 on Affigel-10 (10,286 cpm added)
[8] = target: cell surface binding sites on human umbilical vein endothelial cells (HUVECs); experiment: competition of 20 nM 125I-S100A8/A9 on PAF-activated HUVECs by unlabeled S100A8/A9
[9] = target: [2-3H]mannose-labeled CPAE glycoproteins; experiment: precipitation of [2-3H]mannose-labeled CPAE glycoproteins by annexin I on Affigel-10 (data not shown)
RAGE = target: T1, RAGE (Bos taurus, UniProt Q28173); experiment: Binding assays using ^125I amphoterin on immobilized RAGE; parameters: species or system bovine
T1 construct: from tissue; host or cells: bovine lung (inferred); amphoterin from baculovirus-infected insect cells
T1 sequence (Q28173 23-416): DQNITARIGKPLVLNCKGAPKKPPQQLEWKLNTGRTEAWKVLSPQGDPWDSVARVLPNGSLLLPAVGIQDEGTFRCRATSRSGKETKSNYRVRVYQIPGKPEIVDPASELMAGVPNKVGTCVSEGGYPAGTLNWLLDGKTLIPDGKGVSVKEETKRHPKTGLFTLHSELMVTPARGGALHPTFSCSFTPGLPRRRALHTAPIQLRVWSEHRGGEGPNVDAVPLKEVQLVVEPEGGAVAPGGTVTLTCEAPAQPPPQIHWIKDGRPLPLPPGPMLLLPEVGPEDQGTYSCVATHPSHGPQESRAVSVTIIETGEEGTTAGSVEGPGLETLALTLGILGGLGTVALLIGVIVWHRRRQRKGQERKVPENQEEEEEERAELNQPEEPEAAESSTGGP
Procedure: Amphoterin was radioiodinated using Na ^125I and Iodo-Beads Iodinating Reagent (Pierce) to a specific activity of 5×10^3 cpm/ng protein. Saturation binding experiments were done by a slight modification of the method of Hori et al (Hori at al., J. Biol. Chem., 270:25752-61 [1995]). Briefly, purified RAGE was immobilized on microliter wells and the wells blocked with 3% BSA. Wells were incubated at 4° C. overnight with increasing concentrations of ^125I amphoterin in HBSS containing 0.1% BSA in the presence or absence of desialylated carboxylate-enriched (COO^−) or CONHMe bovine lung glycopeptides, or 20 μg/ml mAbGB3.1 or an unrelated anti-carbohydrate monoclonal antibody, or 100 fold excess of unlabeled amphoterin. Binding was also tested on RAGE deglycosylated by PNGase F under non-denaturing conditions. Wells were washed, bound amphoterin was eluted with 2 M NaCl, and radioactivity was measured using a gamma counter. Non-linear regression analysis was done using the GraphPad Prism program.

In the case of “S100A8/A9: heteromeric S100A8/S100A9 complex purified from human neutrophil cytosol”, the IC50 (HUVECs; unlabeled ligand, 20 nM labeled complex, PAF-activated HUVECs, FIG. 20 Panel B, read-out: half maximal competition of specific binding of ^125I-S100A8/A9) is reported as about 500 nM, the “% Bound Radioactivity (mean ± SD)” value ([1]; primary binding) is reported as 9% and 8.7 ± 0.5% and the “% Bound Radioactivity (mean ± SD)” value ([1]; primary binding to mAbGB3.1, eluted label rebinding to S100A8/A9) is reported as 31.5 ± 0.2%. The “% Bound Radioactivity (mean ± SD)” value ([1]; primary binding to mAbGB3.1, eluted label rebinding to S100A8/A9, listed as S100A8/A9 complex) was “about one-third”, the “% Bound Radioactivity (mean ± SD)” value ([1]; primary binding, listed as S100A8/A9 complex) was 9% and the “binding to immobilized carboxylated vs neutralized glycans” value [2] was “same specificity of binding”.

“^125I-S100A8/A9: purified S100A8/A9 radioiodinated using Na^125I” was tested, and the “binding on PAF-activated HUVECs” value (HUVECs; 4 nM to 80 nM, 4° C. 2 h, FIG. 20 Panel A) was “dose-dependent and saturable binding” and the “binding to unactivated cells, less than to PAF-activated cells” value (HUVECs; data not shown) was 2 fold.

B1: purified human S100A8/A9 complex from peripheral blood neutrophils (ligand)
chain 1: MLTELEKALNSIIDVYHKYSLIKGNFHAVYRDDLKKLLETECPQYIRKKGADVWFKELDINTDGAVNFQEFLILVIKMGVAAHKKSHEESHKE
chain 2: TCKMSQLERNIETIINTFHQYSVKLGHPDTLNQGEFKELVRKDLQNFLKKENKNEKVIEHIMEDLDTNADKQLSFEEFIMLMARLTWASHEKMHEGDEGPGHHHKPGLGEGTP
With B1 the cpm bound to gel [3] was 615 cpm, the cpm bound to gel [4] was 1570 cpm and the cpm bound to gel [5] was 1700 cpm. The fold less binding to unactivated than to PAF-activated cells [6] was 2 fold, the cpm bound to gel [7] was 928 cpm and the IC50 [8] was 500 nM.

B2: recombinant full-length human annexin I (E. coli BL21(DE3), pET23b) (protein)
chain: MAMVSEFLKQAWFIENEEQEYVQTVKSSKGGPGSAVSPYPTFNPSSDVAALHKAIMVKGVDEATIIDILTKRNNAQRQQIKAAYLQETGKPLDETLKKALTGHLEEVVLALLKTPAQFDADELRAAMKGLGTDEDTLIEILASRTNKEIRDINRVYREELKRDLAKDITSDTSGDFRNALLSLAKGDRSEDFGVNEDLADSDARALYEAGERRKGTDVNVFNTILTTRSYPQLRRVFQKYTKYSKHDMNKVLDLELKGDIEKCLTAIVKCATSKPAFFAEKLHQAMKGVGTRHKALIRIMVSRSEIDMNDIKAFYQKMYGISLCQAILDETKGDYEKILVALCGGN
For B2, the % of mannose labeled glycoproteins precipitated [9] was 2 to 3%.

B3: amphoterin: baculovirus expressed rat amphoterin, neurite growth-promoting protein, ligand of RAGE (protein)
chain: GKGDPKKPRGKMSSYAFFVQTCREEHKKKHPDASVNFSEFSKKCSERWKTMSAKEKGKFEDMAKADKARYEREMKTYIPPKGETKKKFKDPNAPKRPPSAFFLFCSEYRPKIKGEHPGLSIGDVAKKLGEMWNNTAADDKQPYEKKAAKLKEKYEKDIAAYRAKGKPDAAKKGVVKAEKSKKKKEEEDDEEDEEDEEEEEEEEDEDEEEDDDDE
In the case of B3, the Bmax (RAGE; in presence of soluble COO^− glycopeptides) is reported as “approximately 34.7±3.7 fmole/well”, the Bmax (RAGE; native purified RAGE) is reported as “approximately 52.7±4.3 fmole/well” and the “binding to immobilized carboxylated vs neutralized glycans” value [2] is reported as “carboxylate dependent manner”.
